Reference: patent publication US20120142098A1 (NOVIMMUNE S A, published 2012)

B1: muCH2-chimeric IgG1 15C1 (antibody, V domains shown)
VH: DVQLQESGPDLIQPSQSLSLTCTVTGYSITGGYSWHWIRQFPGNKLEWMGYIHYSGYTDFNPSLKTRISITRDTSKNQFFLQLNSVTTEDTATYYCARKDPSDGFPYWGQGTLVTVSA
VL: DIVMTQSPATLSVTPGDRVSLSCRASQSISDHLHWYQQKSHESPRLLIKYASHAISGIPSRFSGSGSGTDFTLSIKSVEPEDIGVYYCQNGHSFPLTFGAGTKLELK
notes: domain: CH1 and hinge; The CH2 domain of human IgG1 is replaced with that of mouse IgG1; Limits are in EU numbering; also called chimeric IgG1 15C1 containing mouse CH2; muCH2 chim 15C1; not shown: mouse IgG1 heavy chain CH2 domain, EU positions 231 to 340; human IgG1 heavy chain CH3 domain (after EU position 340); human Kappa light chain constant region
B2: huCH2-mouse IgG1 15C1 (antibody, V domains shown)
VH: DVQLQESGPDLIQPSQSLSLTCTVTGYSITGGYSWHWIRQFPGNKLEWMGYIHYSGYTDFNPSLKTRISITRDTSKNQFFLQLNSVTTEDTATYYCARKDPSDGFPYWGQGTLVTVSA
VL: DIVMTQSPATLSVTPGDRVSLSCRASQSISDHLHWYQQKSHESPRLLIKYASHAISGIPSRFSGSGSGTDFTLSIKSVEPEDIGVYYCQNGHSFPLTFGAGTKLELK
notes: domain: CH1 and hinge; The CH2 domain of mouse IgG1 is replaced with that of human IgG1; Limits are in EU numbering; also called mouse IgG1 15C1 containing human CH2; not shown: human IgG1 heavy chain CH2 domain, EU positions 231 to 340; mouse IgG1 heavy chain CH3 domain (after EU position 340); mouse kappa light chain constant region
B3: mouse IgG1 15C1 (antibody, V domains shown)
VH: DVQLQESGPDLIQPSQSLSLTCTVTGYSITGGYSWHWIRQFPGNKLEWMGYIHYSGYTDFNPSLKTRISITRDTSKNQFFLQLNSVTTEDTATYYCARKDPSDGFPYWGQGTLVTVSA
VL: DIVMTQSPATLSVTPGDRVSLSCRASQSISDHLHWYQQKSHESPRLLIKYASHAISGIPSRFSGSGSGTDFTLSIKSVEPEDIGVYYCQNGHSFPLTFGAGTKLELK
notes: Murine IgG1/K antibody; The hybridoma-derived and the PEAK-cell recombinant forms are treated as one molecule; also called mu15C1; murine 15C1
B4: chimeric MAb with the 15C1 variable region on a human IgG4 backbone (antibody, V domains shown)
VH: DVQLQESGPDLIQPSQSLSLTCTVTGYSITGGYSWHWIRQFPGNKLEWMGYIHYSGYTDFNPSLKTRISITRDTSKNQFFLQLNSVTTEDTATYYCARKDPSDGFPYWGQGTLVTVSA
VL: DIVMTQSPATLSVTPGDRVSLSCRASQSISDHLHWYQQKSHESPRLLIKYASHAISGIPSRFSGSGSGTDFTLSIKSVEPEDIGVYYCQNGHSFPLTFGAGTKLELK
notes: also called hIgG4 15C1; human IgG4 version of 15C1
B5: chimeric IgG1 15C1 mutant # D (SAAL at EU positions 325 to 328) (antibody, V domains shown)
VH: DVQLQESGPDLIQPSQSLSLTCTVTGYSITGGYSWHWIRQFPGNKLEWMGYIHYSGYTDFNPSLKTRISITRDTSKNQFFLQLNSVTTEDTATYYCARKDPSDGFPYWGQGTLVTVSA
VL: DIVMTQSPATLSVTPGDRVSLSCRASQSISDHLHWYQQKSHESPRLLIKYASHAISGIPSRFSGSGSGTDFTLSIKSVEPEDIGVYYCQNGHSFPLTFGAGTKLELK
notes: Positions are in EU numbering; not shown: human IgG1 heavy chain constant region; human Kappa light chain constant region
B6: chimeric IgG1 15C1 mutant # C (SAAF at EU positions 325 to 328) (antibody, V domains shown)
VH: DVQLQESGPDLIQPSQSLSLTCTVTGYSITGGYSWHWIRQFPGNKLEWMGYIHYSGYTDFNPSLKTRISITRDTSKNQFFLQLNSVTTEDTATYYCARKDPSDGFPYWGQGTLVTVSA
VL: DIVMTQSPATLSVTPGDRVSLSCRASQSISDHLHWYQQKSHESPRLLIKYASHAISGIPSRFSGSGSGTDFTLSIKSVEPEDIGVYYCQNGHSFPLTFGAGTKLELK
notes: as for B5
B7: chimeric IgG1 15C1 mutant # E (NAAL at EU positions 325 to 328) (antibody, V domains shown)
VH: DVQLQESGPDLIQPSQSLSLTCTVTGYSITGGYSWHWIRQFPGNKLEWMGYIHYSGYTDFNPSLKTRISITRDTSKNQFFLQLNSVTTEDTATYYCARKDPSDGFPYWGQGTLVTVSA
VL: DIVMTQSPATLSVTPGDRVSLSCRASQSISDHLHWYQQKSHESPRLLIKYASHAISGIPSRFSGSGSGTDFTLSIKSVEPEDIGVYYCQNGHSFPLTFGAGTKLELK
notes: as for B5
B8: chimeric IgG1 15C1 mutant # G (NAAF at EU positions 325 to 328) (antibody, V domains shown)
VH: DVQLQESGPDLIQPSQSLSLTCTVTGYSITGGYSWHWIRQFPGNKLEWMGYIHYSGYTDFNPSLKTRISITRDTSKNQFFLQLNSVTTEDTATYYCARKDPSDGFPYWGQGTLVTVSA
VL: DIVMTQSPATLSVTPGDRVSLSCRASQSISDHLHWYQQKSHESPRLLIKYASHAISGIPSRFSGSGSGTDFTLSIKSVEPEDIGVYYCQNGHSFPLTFGAGTKLELK
notes: as for B5
B9: chimeric IgG1 15C1 mutant # H (NKAF at EU positions 325 to 328) (antibody, V domains shown)
VH: DVQLQESGPDLIQPSQSLSLTCTVTGYSITGGYSWHWIRQFPGNKLEWMGYIHYSGYTDFNPSLKTRISITRDTSKNQFFLQLNSVTTEDTATYYCARKDPSDGFPYWGQGTLVTVSA
VL: DIVMTQSPATLSVTPGDRVSLSCRASQSISDHLHWYQQKSHESPRLLIKYASHAISGIPSRFSGSGSGTDFTLSIKSVEPEDIGVYYCQNGHSFPLTFGAGTKLELK
notes: as for B5
B10: chimeric IgG1 15C1 mutant # F (SKAF at EU positions 325 to 328) (antibody, V domains shown)
VH: DVQLQESGPDLIQPSQSLSLTCTVTGYSITGGYSWHWIRQFPGNKLEWMGYIHYSGYTDFNPSLKTRISITRDTSKNQFFLQLNSVTTEDTATYYCARKDPSDGFPYWGQGTLVTVSA
VL: DIVMTQSPATLSVTPGDRVSLSCRASQSISDHLHWYQQKSHESPRLLIKYASHAISGIPSRFSGSGSGTDFTLSIKSVEPEDIGVYYCQNGHSFPLTFGAGTKLELK
notes: as for B5
B11: chimeric IgG1 15C1 (antibody, V domains shown)
VH: DVQLQESGPDLIQPSQSLSLTCTVTGYSITGGYSWHWIRQFPGNKLEWMGYIHYSGYTDFNPSLKTRISITRDTSKNQFFLQLNSVTTEDTATYYCARKDPSDGFPYWGQGTLVTVSA
VL: DIVMTQSPATLSVTPGDRVSLSCRASQSISDHLHWYQQKSHESPRLLIKYASHAISGIPSRFSGSGSGTDFTLSIKSVEPEDIGVYYCQNGHSFPLTFGAGTKLELK
notes: also called chimeric 15C1; 15C1 on a human IgG1 backbone
B12: B mu 319-340 CH2 chimeric IgG1 15C1 (antibody, V domains shown)
VH: DVQLQESGPDLIQPSQSLSLTCTVTGYSITGGYSWHWIRQFPGNKLEWMGYIHYSGYTDFNPSLKTRISITRDTSKNQFFLQLNSVTTEDTATYYCARKDPSDGFPYWGQGTLVTVSA
VL: DIVMTQSPATLSVTPGDRVSLSCRASQSISDHLHWYQQKSHESPRLLIKYASHAISGIPSRFSGSGSGTDFTLSIKSVEPEDIGVYYCQNGHSFPLTFGAGTKLELK
notes: It is built that way here; copies: 2 + 2
B13: C mu 296-318 CH2 chimeric IgG1 15C1 (antibody, V domains shown)
VH: DVQLQESGPDLIQPSQSLSLTCTVTGYSITGGYSWHWIRQFPGNKLEWMGYIHYSGYTDFNPSLKTRISITRDTSKNQFFLQLNSVTTEDTATYYCARKDPSDGFPYWGQGTLVTVSA
VL: DIVMTQSPATLSVTPGDRVSLSCRASQSISDHLHWYQQKSHESPRLLIKYASHAISGIPSRFSGSGSGTDFTLSIKSVEPEDIGVYYCQNGHSFPLTFGAGTKLELK
notes: copies: 2 + 2
B14: A mu 231-261 CH2 chimeric IgG1 15C1 (antibody, V domains shown)
VH: DVQLQESGPDLIQPSQSLSLTCTVTGYSITGGYSWHWIRQFPGNKLEWMGYIHYSGYTDFNPSLKTRISITRDTSKNQFFLQLNSVTTEDTATYYCARKDPSDGFPYWGQGTLVTVSA
VL: DIVMTQSPATLSVTPGDRVSLSCRASQSISDHLHWYQQKSHESPRLLIKYASHAISGIPSRFSGSGSGTDFTLSIKSVEPEDIGVYYCQNGHSFPLTFGAGTKLELK
notes: as for B12
B15: D mu 262-295 CH2 chimeric IgG1 15C1 (antibody, V domains shown)
VH: DVQLQESGPDLIQPSQSLSLTCTVTGYSITGGYSWHWIRQFPGNKLEWMGYIHYSGYTDFNPSLKTRISITRDTSKNQFFLQLNSVTTEDTATYYCARKDPSDGFPYWGQGTLVTVSA
VL: DIVMTQSPATLSVTPGDRVSLSCRASQSISDHLHWYQQKSHESPRLLIKYASHAISGIPSRFSGSGSGTDFTLSIKSVEPEDIGVYYCQNGHSFPLTFGAGTKLELK
notes: copies: 2 + 2
B16: 15C1 humanized VH mutant 1 together with 15C1 humanized VL A26 (antibody, human IgG1, V domains shown)
VH: QVQLQESGPGLVKPSDTLSLTCAVSGYSITGGYSWHWIRQPPGKGLEWMGYIHYSGYTDFNPSLKTRITISRDTSKNQFSLKLSSVTAVDTAVYYCARKDPSDAFPYWGQGTLVTVSS
VL: EIVLTQSPDFQSVTPKEKVTITCRASQSISDHLHWYQQKPDQSPKLLIKYASHAISGVPSRFSGSGSGTDFTLTINSLEAEDAATYYCQNGHSFPLTFGGGTKVEIK
notes: also called version VH mutant 1

The binders below were run against T1, human TLR4/MD2 complex expressed on the cell surface (human, UniProt O00206 24-839; Q9Y6Y9 19-160) (assay: FACS on CHO TLR4/MD2 transfectants).
T1 construct: also called CHO TLR4/MD2 transfectants
T1 sequence (O00206 24-839 limits assumed, chain 1 of 2): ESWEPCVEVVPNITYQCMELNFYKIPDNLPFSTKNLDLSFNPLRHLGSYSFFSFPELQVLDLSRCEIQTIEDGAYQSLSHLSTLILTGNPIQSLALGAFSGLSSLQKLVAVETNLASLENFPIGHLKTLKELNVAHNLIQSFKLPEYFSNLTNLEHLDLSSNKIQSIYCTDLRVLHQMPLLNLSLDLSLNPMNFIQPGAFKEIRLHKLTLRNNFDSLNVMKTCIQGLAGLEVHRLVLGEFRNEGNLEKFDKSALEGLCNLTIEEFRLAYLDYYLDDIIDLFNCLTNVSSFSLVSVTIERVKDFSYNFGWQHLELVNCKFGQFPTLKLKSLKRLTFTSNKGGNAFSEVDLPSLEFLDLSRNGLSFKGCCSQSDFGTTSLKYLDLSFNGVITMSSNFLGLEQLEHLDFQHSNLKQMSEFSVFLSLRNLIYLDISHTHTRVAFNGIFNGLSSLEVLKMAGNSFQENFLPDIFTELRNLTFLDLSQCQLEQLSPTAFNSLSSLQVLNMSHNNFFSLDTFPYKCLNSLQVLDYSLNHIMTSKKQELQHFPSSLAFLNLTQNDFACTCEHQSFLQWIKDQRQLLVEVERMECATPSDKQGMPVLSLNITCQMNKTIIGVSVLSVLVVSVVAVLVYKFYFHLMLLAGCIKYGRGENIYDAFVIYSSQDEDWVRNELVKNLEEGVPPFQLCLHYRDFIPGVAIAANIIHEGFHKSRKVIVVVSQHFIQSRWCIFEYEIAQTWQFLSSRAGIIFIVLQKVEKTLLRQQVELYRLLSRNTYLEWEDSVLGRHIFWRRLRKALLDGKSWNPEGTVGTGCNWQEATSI
T1 sequence (Q9Y6Y9 19-160 R56G limits assumed, chain 2 of 2): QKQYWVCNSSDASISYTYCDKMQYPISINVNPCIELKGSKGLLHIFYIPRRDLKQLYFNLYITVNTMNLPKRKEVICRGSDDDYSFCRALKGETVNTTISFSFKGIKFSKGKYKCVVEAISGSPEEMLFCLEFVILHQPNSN

Binding result, binds:
B1, B2

Each binder was assayed against T1, human TLR4/MD2 complex expressed on the … (assay: binding to TLR4/MD-2 transfected CHO cells).

Binding result, binds:
B3, B4

These binders were tested against T1, human TLR4/MD2 complex expressed on the … (assay: FACS on CHO stable cell line expressing human TLR4/MD2).

Binding result, binds:
B5, B6, B7, B8, B9, B10

Each binder was assayed against T1, human TLR4/MD2 complex expressed on the … (assay: FACS on CHO stable cell line expressing human TLR4-MD2 complex).
Protocol: Studies were then designed to evaluate which residues of the mouse CH2 domain are necessary for Fc-mediated inhibitory activity. Starting with the chimeric IgG115C1 containing the full length mouse CH2 domain, the approach was to identify the critical region of the CH2 domain by introducing a maximum number of human residues without observing a loss of the Fc-mediated inhibitory activity. The identification of these critical residues was determined by subdividing the mouse CH2 into 4 parts (A: EU positions 231 to 261; B: EU positions 319 to 340; C: EU positions 296-318 and D: EU positions 262 to 295) and introducing for each of the 4 sub-regions the corresponding CH2 amino acid sequence of a human IgG1 (see FIG. 6A). The sub-division of the mouse CH2 into four subregions was purely based on amino acid sequence homology with the human CH2. The four heavy chain mutants were engineered by overlapping PCR and recombinant MAbs expressed in PEAK. The corresponding antibodies were purified from transfected-cell supernatants by protein G affinity column chromatography and binding to CHO stable cell line expressing human TLR4-MD2 complex on their surface of the following antibodies was determined: muCH2-chimeric IgG1 15C1; chimeric IgG1 15C1; A mu 231-261 CH2 chimeric IgG1 15C1; B mu 319-340 CH2 chimeric IgG1 15C1; C mu 296-318 CH2 chimeric IgG1 15C1; and D mu 262-295 CH2 chimeric IgG1 15C1. 4×10⁵ cells/well were incubated for 30 minutes at 4° C. in 50 μl of phosphate buffered saline (PBS) with 1% bovine serum albumin (PBS-1% BSA) and either serial dilution of the appropriate antibody or an irrelevant human IgG1 isotype control. Cells were washed once with PBS-1% BSA and incubated in the same buffer with FMAT-Blue®-conjugated goat anti-human Kappa light chain antibody (1:250 dilution, Sigma K3502) for 30 minutes at 4° C. Cells were washed twice with PBS-1% BSA and analyzed using a FACScalibur® flow cytometer […] in the FL-4 channel.

Binding result, binds:
B11, B12, B13, B14, B15

The binders below were run against T1, human TLR4/MD2 complex expressed on the … (assay: FACS (MFI) on CHO cells expressing human TLR4-MD2; PEAK supernatants at 0.33, 0.11 and 0.04 ug/ml).
Protocol: The binding of these mutants was analyzed by FACS on cells expressing recombinant human TLR4-MD2. PEAK cells were co-transfected with 1 ug of combinations of expression vectors encoding 15C1 humanized VH mutant 1 or 2 together with 15C1 humanized VL A26 or 15C1 humanized VH 4-28 together with 15C1 humanized VL mutant 1, 2, 3 or 4 shown in Example 4 using the Trans IT-LT1 transfection reagent (Mirus Bio Corporation, Madison Wis.). All transfections were carried out in duplicates. 72 h post-transfection, PEAK cells supernatants were collected and the concentration of recombinant human IgG1/Kappa measured by ELISA. The antibody concentrations of all the supernatants were then adjusted to 0.33 μg/ml. These supernatants and two serial dilutions of 0.11 and 0.04 ug/ml were then tested for binding to CHO cells expressing human TLR4-MD2 at their surface by FACS. 5×10⁵ cells were incubated with the diluted PEAK supernatant for 1 h at 4° C.

Binding result, binds:
B16
